Reference: patent US20150328292A1, “CASPASE POLYPEPTIDES HAVING MODIFIED ACTIVITY AND USES THEREOF” (BELLICUM PHARMACEUTICALS, INC., priority 2014, published 2015)
Residue numbers refer to the chain shown, from its start. In names and notes the source's numbering stands.

B1: N405A: chimeric modified caspase-9 polypeptide variant (protein, UniProt P55211 1-416, looked up, variant N405A)
chain: MDEADRRLLRRCRLRLVEELQVDQLWDALLSRELFRPHMIEDIQRAGSGSRRDQARQLIIDLETRGSQALPLFISCLEDTGQDMLASFLRTNRQAAKLSKPTLENLTPVVLRPEIRKPEVLRPETPRPVDIGSGGFGDVGALESLRGNADLAYILSMEPCGHCLIINNVNFCRESGLRTRTGSNIDCEKLRRRFSSLHFMVEVKGDLTAKKMVLALLELAQQDHGALDCCVVVILSHGCQASHLQFPGAVYGTDGCPVSVEKIVNIFNGTSCPSLGGKPKLFFIQACGGEQKDHGFEVASTSPEDESPGSNPEPDATPFQEGLRTFDQLDAISSLPTPSDIFVSYSTFPGFVSWRDPKSGSWYVETLDDIFEQWAHSEDLQSLLLRVANAVSVKGIYKQMPGCFAFLRKKLFFKTS
modifications: chimeric, fused to FKBP12v36
notes: chimeric modified caspase-9 polypeptide variant
B2: G402I: chimeric modified caspase-9 polypeptide variant (protein, UniProt P55211 1-416, looked up, variant G402I)
chain: B1 chain with G402I, A405N
modifications: chimeric, fused to FKBP12v36
notes: as for B1
B3: C403P: chimeric modified caspase-9 polypeptide variant (protein, UniProt P55211 1-416, looked up, variant C403P)
chain: B1 chain with C403P, A405N
modifications: chimeric, fused to FKBP12v36
notes: as for B1
B4: D315A: chimeric modified caspase-9 polypeptide variant (protein, UniProt P55211 1-416, looked up, variant D315A)
chain: B1 chain with D315A, A405N
modifications: chimeric, fused to FKBP12v36
notes: as for B1
B5: N405F: chimeric modified caspase-9 polypeptide variant (protein, UniProt P55211 1-416, looked up, variant N405F)
chain: B1 chain with A405F
modifications: chimeric, fused to FKBP12v36
notes: as for B1
B6: G402Y: chimeric modified caspase-9 polypeptide variant (protein, UniProt P55211 1-416, looked up, variant G402Y)
chain: B1 chain with G402Y, A405N
modifications: chimeric with dimerization domain
notes: as for B1
B7: G402Q: chimeric modified caspase-9 polypeptide variant (protein, UniProt P55211 1-416, looked up, variant G402Q)
chain: B1 chain with G402Q, A405N
modifications: chimeric, fused to FKBP12v36
notes: as for B1
B8: D315A-D330A: chimeric modified caspase-9 polypeptide double mutant (protein, UniProt P55211 1-416, looked up, variant D315A D330A)
chain: B1 chain with D315A, D330A, A405N
modifications: chimeric, fused to FKBP12v36
notes: chimeric modified caspase-9 polypeptide double mutant
B9: ^402GCFNF^406ISAQT: caspase-9 with 402-406 residues replaced by those of Caspase-10 (protein, UniProt P55211 1-416, looked up, variant G402I C403S F404A N405Q F406T)
chain: B1 chain with G402I, C403S, F404A, A405Q, F406T
modifications: residues from caspase-10
B10: N405T: chimeric modified caspase-9 polypeptide variant (protein, UniProt P55211 1-416, looked up, variant N405T)
chain: B1 chain with A405T
modifications: chimeric, fused to FKBP12v36
notes: as for B1
B11: ^316ATPF^319AVPI: caspase-9 with ATPF tetrapeptide replaced by SMAC/DIABLO AVPI (protein, UniProt P55211 1-416, looked up, variant T317V F319I)
chain: B1 chain with T317V, F319I, A405N
B12: D327G: chimeric modified caspase-9 polypeptide variant (protein)
chain: VDGFGDVGALESLRGNADLAYILSMEPCGHCLIINNVNFCRESGLRTRTGSNIDCEKLRRRFSSLHFMVEVKGDLTAKKMVLALLELARQDHGALDCCVVVILSHGCQASHLQFPGAVYGTDGCPVSVEKIVNIFNGTSCPSLGGKPKLFFIQACGGEQKDHGFEVASTSPEDESPGSNPEPDATPFQEGLRTFGQLDAISSLPTPSDIFVSYSTFPGFVSWRDPKSGSWYVETLDDIFEQWAHSEDLQSLLLRVANAVSVKGIYKQMPGCFNFLRKKLFFKTSASRA
B13: D327R: chimeric modified caspase-9 polypeptide variant (protein)
chain: B12 chain with G195R
B14: Q328R: chimeric modified caspase-9 polypeptide variant (protein)
chain: B12 chain with G195D, Q196R
B15: L329G: chimeric modified caspase-9 polypeptide variant (protein)
chain: B12 chain with G195D, L197G
B16: A331K: chimeric modified caspase-9 polypeptide variant (protein)
chain: B12 chain with G195D, A199K
B17: Q328K: chimeric modified caspase-9 polypeptide variant (protein)
chain: B12 chain with G195D, Q196K
B18: T317C: chimeric modified caspase-9 polypeptide variant (protein)
chain: B12 chain with T185C, G195D
B19: L329K: chimeric modified caspase-9 polypeptide variant (protein)
chain: B12 chain with G195D, L197K
B20: D327K: chimeric modified caspase-9 polypeptide variant (protein)
chain: B12 chain with G195K
B21: F326K: chimeric modified caspase-9 polypeptide variant (protein)
chain: B12 chain with F194K, G195D

Test system: HEK293T/16 cells
Assay: SEAP reporter-based surrogate killing assay (basal activity and AP1903 IC50)
Assay type: cell-based, human
Conditions: AP1903-independent SEAP activity, vs wild type
Procedure: FIG. 45 provides a schematic of an analysis of SEAP assays. […] of the mixture was seeded onto each well of a 96-well plate. […] For the assay, 4-methylumbelliferyl phosphate substrate was hydrolyzed by SEAP to 4-methylumbelliferon, a metabolite that can be excited with 364 nm and detected with an emission filter of 448 nm. Since SEAP is used as a marker for cell viability, reduced SEAP reading corresponds with increased icaspase-9 activities.
Early passage HEK293T/16 cells (ATCC, Manassas, Va.) were maintained in IMDM, GlutaMAX™ (Life Technologies, Carlsbad, Calif.) supplemented with 10% FBS, 100 U/mL penicillin, and 100 […] until transfection in a humidified, 37° C., 5% CO2/95% air atmosphere. Cells in logarithmic-phase growth were transiently transfected with 800 ng to 2 μg of expression plasmid encoding iCasp9 mutants and 500 ng of an expression plasmid encoding SRα promoter driven SEAP per million cells in 15-mL conical tubes. […] GeneJammer® Transfection Reagent at a ratio of 3 μl per ug of plasmid DNA was used to transiently transfect HEK293T/16 cells in the absence of antibiotics. 100 μl or 2 mL of the transfection mixture was added to each well in 96-well or 6-well plate, respectively.
Briefly, after 65° C. heat denaturation for 45 minutes to reduce background caused by endogenous (and serum-derived) alkaline phosphatases that are sensitive to heat, 5 μl of supernatants was added to 95 μl of PBS and added to 100 μl of substrate buffer, containing 1 μl of 100 mM 4-methylumbelliferyl phosphate (4-MUP; Sigma, St. Louis, Mo.) re-suspended in 2 M diethanolamine. Hydrolysis of 4-MUP by SEAP produces a fluorescent […] with excitation/emission (355/460 nm), which can be easily measured. Assays were performed in black opaque 96-well plates to minimize fluorescence leakage between wells (FIG. 45).

Row | Molecule | basal activity / basal signaling (in words)
1 | B1 | no effect
2 | B2 | catalytically inactive
3 | B3 | catalytically inactive
4 | B4 | reduced basal activity
5 | B5 | lowered basal activity
6 | B6 | catalytically inactive
7 | B7 | catalytically inactive
8 | B8 | inactive
9 | B9 | reduced basal activity
10 | B10 | increased basal activity
11 | B11 | no effect
12 | B12 | did not lower basal activity
13 | B13 | did not lower basal activity
14 | B14 | did not lower basal activity
15 | B15 | did not lower basal activity
16 | B16 | did not lower basal activity
17 | B17 | did not lower basal activity
18 | B18 | no effect
19 | B19 | did not lower basal activity
20 | B20 | did not lower basal activity
21 | B21 | did not lower basal activity
